Key:
[1] = tested on: epididymal adipocytes, gastrocnemius muscle and BAT; experiment: Glucose uptake into epididymal adipocytes, gastrocnemius muscle and BAT of rats treated with ZAG; assay type: in vivo, Wistar rats
Description: FIG. 12D is a graphical diagram showing glucose uptake into gastrocnemius muscle and BAT of male Wistar rats after 10 days treatment with either ZAG or PBS. in the absence or presence of insulin (60 μU/ml). Differences between ZAG and PBS treated animals are shown as a, p<0.05, b, p<0.01 or c, p<0.001, while differences in the presence of insulin are shown as or f, p<0.001.
Glucose (intake into Atlipocpyes Isolated adipocytes (5×10^4) were washed twice in 1 ml Krebs-Ringer bicarbonate buffer, pH 7.2 (KRBS) and further incubated for 10 min at room temperature in 0.5 ml KRBS containing 18.5MBq […]-^14CI deoxy-D-glucose and non-radioactive 2-deoxy-D-glucose to a final concentration of 0.1 mM. Uptake was terminated by the addition of 1 ml ice-cold glucose-free KRBS, and the cells were washed three times with 1 ml KRBS, lysed by addition of 0.5 ml 1 M NaOH and left for at least 1 h at room temperature before the radioactivity was determined by liquid scintillation counting.
Glucose Uptake into Gostrocneinius Muscle—Gastrocnemius muscles were incubated in Krebs-Henseleit bicarbonate butler for 45 min at 37° C. and then incubated for a further 10 min in 5 ml Krebs-Henseleit butler containing 185M Bq 2-[1-^14C]deoxy-D-glucose and non-radioactive 2-deoxy-D-glucose to a final concentration of 0.1 mM. The muscles were then removed and washed in 0.9% NaCl for 5 min followed by dissolution in 0.5 ml 1M NaOH and the radioactivity was determined by liquid scintillation counting.

[2] = tested on: murine myotubes; experiment: Protein degradation and synthesis in myotubes subjected to high glucose; assay type: cell-based
Description: FIGS. 18A and 18B is a graphical diagram showing phenylalanine release (FIG. 18A) and protein synthesis (FIG. 18B) in C2Cl2 myotubes treated with and without ZAG for 4 h in the presence of various concentrations of glucose. Statistically significant c, P<0.001 from control; f, P<0.001 from glucose alone.
Statistically significant b, P<0.01 and c, P<0.001 from control; e, P<0.05 and f, P<0.001 from glucose alone.
Statistically significant b, P<0.01 and c, P<0.001 from control; e, P<0.05 and f, P<:0.001 from glucose alone; I, P<0.001 from glucose+SR.
This utilizes murine myotubes subjected. to high concentrations of glucose (10 or 25 mM).

[3] = tested on: C2Cl2 myotubes; experiment: ROS formation and PKR/eIF2α phosphorylation in myotubes treated with glucose; assay type: cell-based, murine
From the text: FIG. 21 is a graphical diagram showing ROS activity in C2Cl2 myotubes treated with various concentrations of glucose with and without ZAG. Statistically significant c, P<0.001 from control f, P<0.001 from glucose alone.
FIG. 22A is a pictorial diagram of a Western blot showing PKR in C2Cl2 myotubes treated with glucose with and without ZAG. Statistically significant c, P<0.001 from control f, P<0.001 from glucose alone.
FIG. 22B is a pictorial diagram of a Western blot showing elF2a in C2Cl2 myotubes treated with glucose with and without ZAG. Statistically significant c, P<0.001 from control f, P<0.001 from glucose alone.
It has been shown that formation of reactive oxygen species (ROS) is important in protein degradation induced by high glucose load. […] High glucose also induces activation (phosphoiylation) of PKR (FIG. 22A) and the subsequent phosphorylation of elf2α (FIG. 22B) as is seen in skeletal muscle of ob/ob mice, which was also attenuated by ZAG.

[4] = tested on: adipocytes; experiment: Lipolytic responsiveness of adipocytes from ZAG treated ob/ob mice to isoprenaline or BRL37344; assay type: in vivo
From the text: FIG. 5K is a graphical diagram showing the response of adipocytes from epididymal (ep), subcutaneous (sc) and visceral (vis) deposits from ob/ob mice treated with either PBS or ZAG for 5 days to the lipolytic effect of BRI,37344, Differences from PBS controls are indicated as *** p<0.01, while differences in the presence of PD98059 is shown as # p<0.001.
FIG. 9 is a graphical diagram showing glycerol release stimulated by isoprenaline (iso) isolated adipocytes which have been in culture up to 5 days from ob mice treated with and without ZAG.
Lipolytic Assay—Samples to be assayed were incubated with 10^5 to 2×10^5 adipocytes for 2 h in 1 ml Krebs-Ringer bicarbonate buffer, pH 7.2. The concentration of glycerol released was determined enzymatically by the method of Wieland (Wieland, O. Glycerol UV method. In Methods of Enzymatic Analysis (ed. Bergmeyer, H. U.) (Academic Press, London, UK, pp 1404-1409, 1974)). Control samples containing adipocytes alone were analysed to determine the spontaneous glycerol release. Activity was expressed as nmol glycerol released/10^5 adipocytes/2 h.
Adipocytes were removed from mice after 5 days of ZAG and their responsiveness to isoprenaline (iso) was measured after culture in the absence of ZAG (FIG. 9), The responsiveness to iso is higher in ZAG treated mice and this continues for a further 4 days (Which was when expression of ZAG and HSL were increased) and then falls on day 5 (when expression was not increased) down to values of PBS control.
The data shown in Attachment 1 is from a 5 day study where ZAG was administered at 35 μg per day i.v. on a daily basis for 5 days. At the end of the experiment tissues were removed and blotted, or functional assays were carried out with isolated adipocytes. […] When ep adipocytes were prepared and maintained in tissue culture (RPMI 1640 ±10% FCS) ZAG expression was maintained for a further 3 days, even though no ZAG was added to the culture medium (FIG. 6B). […] In fact, as discussed above, too much ZAG is more likely to lead to resistance rather than an increased response.

B1: Zinc-α2-glycoprotein (protein, listed as Homo sapiens)
chain: QENQDGRYSLTYIYTGLSKHVEDVPAFQALGSLNDLQFFRYNSKDRKSQPMGLWRQVEGMEDWKEDSQLQKAREDMETLKDIVEYYNDSNGSHVLQGRFGCEIENNRSSGAFWKYYYDGKDYIEFNKEIPAWVPFDPAAQITKQKWEAEPVYVQRAKAYLEEECPATLRKYLKYSKNILDRQDPPSVVVTSHQAPGEKKKLKCLAYDFYPGKIDVHWTRAGQVQEPELRGDVLHNGNGTYQSWVVVAVPPQDTAPYSCHVQHSSLAQPLVVPWEAS
notes: recombinant human Zinc-α2-glycoprotein, lipid mobilizing factor, expressed in HEK293F cells
[1]; absence of insulin, vs PBS
  glucose uptake into gastrocnemius muscle and BAT: small, non-significant increase
[1]; presence of insulin (60 μU/ml)
  glucose uptake into adipocytes, ZAG versus PBS treated animals: no significant difference
  glucose uptake into gastrocnemius muscle and BAT: significant increase in uptake
[2]; ZAG 2.5 μg/ml, glucose 10 or 25 mM
  high glucose induced increase in protein degradation and depression of protein synthesis: completely attenuated
[2]; myotubes
  protein degradation induced by 10 and 25 mM glucose: attenuated
[3]
  glucose induced phosphorylation of PKR and eIF2α: attenuated
  increase in ROS produced by glucose: completely attenuates
[4]; adipocytes from mice after 5 days ZAG, cultured in absence of ZAG
  responsiveness of adipocytes to isoprenaline: higher
[4]; adipocytes from mice treated 5 days
  lipolytic response of epididymal adipocytes to the β3 agonist BRL37344: increased lipolytic response
[4]; isoprenaline 10 μM, absence of ZAG
  time the increased response to isoprenaline was maintained in tissue culture: 4 days
